In patent US20230407373A1 (priority 2020, published 2023):
Where two headings read alike, the source gives them in different places.

Legend:
Format in all cases: binding
[1] = tested on: SARS-CoV-2 gRNA and sgRNAs; conditions: for target (unweighted spectral count of the protein in the RNP capture experiment): LC-MS/MS label-free quantification, probe pool not given; for back-ground (unweighted spectral count of the protein in the control experiment): protein background of the control (e.g. no-probe) experiment; for target (unweighted spectral count in RNP capture): Probe II capture, LC-MS/MS LFQ; for background (unweighted spectral count in control): no-probe control pull-down, used as background for Probe II
gRNA of HCoV-OC43 = conditions: type n_48_v: 48 hours post-infection; for target (spectral count, OC43 Probe I RNP capture): infected cells, unweighted spectral count; for background (spectral count, no-probe control): no-probe control on infected cells
HCoV-OC43 gRNA and sgRNA = conditions: for target (unweighted spectral count, OC43 Probe II capture): type n_36_v, FDR<10%; for target (unweighted spectral count, OC43 Probe II capture) / target (unweighted spectral count): tested against no-probe control; for target (unweighted spectral count, OC43 Probe II) / background (unweighted spectral count, no-probe control): type n_48_v, 48 hpi; for target (unweighted spectral count, OC43 Probe II): OC43 Probe II capture on infected cells; for background (unweighted spectral count, no-probe control): no-probe control on infected cells; for target (unweighted spectral count): OC43 Probe II, infected cells
SARS-CoV-2 gRNA = conditions: […]; LC-MS/MS; Probe I sample (first 199 lines of Table 2)

B1: CHTOP (protein, UniProt Q9Y3Y2 2-248, looked up)
Chromatin target of PRMT1 …: AAQSAPKVVLKSTTKMSLNERFTNMLKNKQPTPVNIRASMQQQQQLASARNRRLAQQMENRPSVQAALKLKQSLKQRLGKSNIQARLGRPIGALARGAIGGRGLPIIQRGLPRGGLRGGRATRTLLRGGMSLRGQNLLRGGRAVAPRMGLRRGGVRGRGGPGRGGLGRGAMGRGGIGGRGRGMIGRGRGGFGGRGRGRGRGRGALARPVLTKEQLDNQLDAYMSKTKGHLDAELDAYMAQTDPETND
target (unweighted spectral count of the protein in the RNP capture experiment) [1]: 5 | back-ground (unweighted spectral count of the protein in the control experiment) [1]: 1 | target (spectral count, OC43 Probe I RNP capture) (gRNA of HCoV-OC43): 6 | background (spectral count, no-probe control) (gRNA of HCoV-OC43): 1 | target (unweighted spectral count, OC43 Probe II capture) (HCoV-OC43 gRNA and sgRNA; 36 hpi): 5 | target (unweighted spectral count, OC43 Probe II) (HCoV-OC43 gRNA and sgRNA): 6 | background (unweighted spectral count, no-probe control) (HCoV-OC43 gRNA and sgRNA): 1

B2: SYNCRIP: host protein, UniProt O60506 (protein, UniProt O60506 2-623, looked up)
Heterogeneous nuclear …: ATEHVNGNGTEEPMDTTSAVIHSENFQTLLDAGLPQKVAEKLDEIYVAGLVAHSDLDERAIEALKEFNEDGALAVLQQFKDSDLSHVQNKSAFLCGVMKTYRQREKQGTKVADSSKGPDEAKIKALLERTGYTLDVTTGQRKYGGPPPDSVYSGQQPSVGTEIFVGKIPRDLFEDELVPLFEKAGPIWDLRLMMDPLTGLNRGYAFVTFCTKEAAQEAVKLYNNHEIRSGKHIGVCISVANNRLFVGSIPKSKTKEQILEEFSKVTEGLTDVILYHQPDDKKKNRGFCFLEYEDHKTAAQARRRLMSGKVKVWGNVGTVEWADPIEDPDPEVMAKVKVLFVRNLANTVTEEILEKAFSQFGKLERVKKLKDYAFIHFDERDGAVKAMEEMNGKDLEGENIEIVFAKPPDQKRKERKAQRQAAKNQMYDDYYYYGPPHMPPPTRGRGRGGRGGYGYPPDYYGYEDYYDYYGYDYHNYRGGYEDPYYGYEDFQVGARGRGGRGARGAAPSRGRGAAPPRGRAGYSQRGGPGSARGVRGARGGAQQQRGRGVRGARGGRGGNVGGKRKADGYNQPDSKRRQTNNQNWGSQPIAQQPLQGGDHSGNYGYKSENQEFYQDTFGQQWK
target (unweighted spectral count in RNP capture) [1]: 159 | background (unweighted spectral count in control) [1]: 1 | target (spectral count, OC43 Probe I RNP capture) (gRNA of HCoV-OC43): 88 | background (spectral count, no-probe control) (gRNA of HCoV-OC43): 7 | target (unweighted spectral count, OC43 Probe II capture) (HCoV-OC43 gRNA and sgRNA; 36 hpi): 97 | target (unweighted spectral count) (HCoV-OC43 gRNA and sgRNA; 12 hpi (type n_12_v)): 33 | target (unweighted spectral count) (HCoV-OC43 gRNA and sgRNA; 24 hpi (type n_24_v)): 55 | target (unweighted spectral count, OC43 Probe II) (HCoV-OC43 gRNA and sgRNA): 87 | background (unweighted spectral count, no-probe control) (HCoV-OC43 gRNA and sgRNA): 7 | target (spectral count) (HCoV-OC43 gRNA and sgRNA; type s_36_m, HCoV-OC43-infected HCT-8 cells, 36 hpi, Probe II): 97 | background (spectral count) (HCoV-OC43 gRNA and sgRNA; type s_36_m, uninfected-probe control, 36 hpi, Probe II): 23

B3: DHX30 (protein, UniProt Q7L2E3 1-1194, looked up)
ATP-dependent RNA helicase …: MFSLDSFRKDRAQHRQRQCKLPPPRLPPMCVNPTPGGTISRASRDLLKEFPQPKNLLNSVIGRALGISHAKDKLVYVHTNGPKKKKVTLHIKWPKSVEVEGYGSKKIDAERQAAAAACQLFKGWGLLGPRNELFDAAKYRVLADRFGSPADSWWRPEPTMPPTSWRQLNPESIRPGGPGGLSRSLGREEEEDEEEELEEGTIDVTDFLSMTQQDSHAPLRDSRGSSFEMTDDDSAIRALTQFPLPKNLLAKVIQIATSSSTAKNLMQFHTVGTKTKLSTLTLLWPCPMTFVAKGRRKAEAENKAAALACKKLKSLGLVDRNNEPLTHAMYNLASLRELGETQRRPCTIQVPEPILRKIETFLNHYPVESSWIAPELRLQSDDILPLGKDSGPLSDPITGKPYVPLLEAEEVRLSQSLLELWRRRGPVWQEAPQLPVDPHRDTILNAIEQHPVVVISGDTGCGKTTRIPQLLLERYVTEGRGARCNVIITQPRRISAVSVAQRVSHELGPSLRRNVGFQVRLESKPPSRGGALLFCTVGILLRKLQSNPSLEGVSHVIVDEVHERDVNTDFLLILLKGLQRLNPALRLVLMSATGDNERFSRYFGGCPVIKVPGFMYPVKEHYLEDILAKLGKHQYLHRHRHHESEDECALDLDLVTDLVLHIDARGEPGGILCFLPGWQEIKGVQQRLQEALGMHESKYLILPVHSNIPMMDQKAIFQQPPVGVRKIVLATNIAETSITINDIVHVVDSGLHKEERYDLKTKVSCLETVWVSRANVIQRRGRAGRCQSGFAYHLFPRSRLEKMVPFQVPEILRTPLENLVLQAKIHMPEKTAVEFLSKAVDSPNIKAVDEAVILLQEIGVLDQREYLTTLGQRLAHISTDPRLAKAIVLAAIFRCLHPLLVVVSCLTRDPFSSSLQNRAEVDKVKALLSHDSGSDHLAFVRAVAGWEEVLRWQDRSSRENYLEENLLYAPSLRFIHGLIKQFSENIYEAFLVGKPSDCTLASAQCNEYSEEEELVKGVLMAGLYPNLIQVRQGKVTRQGKFKPNSVTYRTKSGNILLHKSTINREATRLRSRWLTYFMAVKSNGSVFVRDSSQVHPLAVLLLTDGDVHIRDDGRRATISLSDSDLLRLEGDSRTVRLLKELRRALGRMVERSLRSELAALPPSVQEEHGQLLALLAELLRGPCGSFDVRKTADD
target (unweighted spectral count of the protein in the RNP capture) (SARS-CoV-2 gRNA): 13

B4: HNRNPC (protein, UniProt P07910 2-306, looked up)
Heterogeneous nuclear …: ASNVTNKTDPRSMNSRVFIGNLNTLVVKKSDVEAIFSKYGKIVGCSVHKGFAFVQYVNERNARAAVAGEDGRMIAGQVLDINLAAEPKVNRGKAGVKRSAAEMYGSVTEHPSPSPLLSSSFDLDYDFQRDYYDRMYSYPARVPPPPPIARAVVPSKRQRVSGNTSRRGKSGFNSKSGQRGSSKSGKLKGDDLQAIKKELTQIKQKVDSLLENLEKIEKEQSKQAVEMKNDKSEEEQSSSSVKKDETNVKMESEGGADDSAEEGDLLDDDDNEDRGDDQLELIKDDEKEAEEGEDDRDSANGEDDS
target (unweighted spectral count in RNP capture) [1]: 75 | background (unweighted spectral count in control) [1]: 2 | background (spectral count, no-probe control) (gRNA of HCoV-OC43): 19 | target (unweighted spectral count, OC43 Probe II capture) (HCoV-OC43 gRNA and sgRNA; 36 hpi): 69 | target (unweighted spectral count) (HCoV-OC43 gRNA and sgRNA; 12 hpi (type n_12_v)): 30 | target (unweighted spectral count) (HCoV-OC43 gRNA and sgRNA; 24 hpi (type n_24_v)): 40 | target (unweighted spectral count, OC43 Probe II) (HCoV-OC43 gRNA and sgRNA): 88 | background (unweighted spectral count, no-probe control) (HCoV-OC43 gRNA and sgRNA): 19

B5: UBAP2L (protein, UniProt Q14157 1-1087, looked up)
Ubiquitin-associated protein …: MMTSVGTNRARGNWEQPQNQNQTQHKQRPQATAEQIRLAQMISDHNDADFEEKVKQLIDITGKNQDECVIALHDCNGDVNRAINVLLEGNPDTHSWEMVGKKKGVSGQKDGGQTESNEEGKENRDRDRDYSRRRGGPPRRGRGASRGREFRGQENGLDGTKSGGPSGRGTERGRRGRGRGRGGSGRRGGRFSAQGMGTFNPADYAEPANTDDNYGNSSGNTWNNTGHFEPDDGTSAWRTATEEWGTEDWNEDLSETKIFTASNVSSVPLPAENVTITAGQRIDLAVLLGKTPSTMENDSSNLDPSQAPSLAQPLVFSNSKQTAISQPASGNTFSHHSMVSMLGKGFGDVGEAKGGSTTGSQFLEQFKTAQALAQLAAQHSQSGSTTTSSWDMGSTTQSPSLVQYDLKNPSDSAVHSPFTKRQAFTPSSTMMEVFLQEKSPAVATSTAAPPPPSSPLPSKSTSAPQMSPGSSDNQSSSPQPAQQKLKQQKKKASLTSKIPALAVEMPGSADISGLNLQFGALQFGSEPVLSDYESTPTTSASSSQAPSSLYTSTASESSSTISSNQSQESGYQSGPIQSTTYTSQNNAQGPLYEQRSTQTRRYPSSISSSPQKDLTQAKNGFSSVQATQLQTTQSVEGATGSAVKSDSPSTSSIPPLNETVSAASLLTTTNQHSSSLGGLSHSEEIPNTTTTQHSSTLSTQQNTLSSSTSSGRTSTSTLLHTSVESEANLHSSSSTFSTTSSTVSAPPPVVSVSSSLNSGSSLGLSLGSNSTVTASTRSSVATTSGKAPPNLPPGVPPLLPNPYIMAPGLLHAYPPQVYGYDDLQMLQTRFPLDYYSIPFPTPTTPLTGRDGSLASNPYSGDLTKFGRGDASSPAPATTLAQPQQNQTQTHHTTQQTFLNPALPPGYSYTSLPYYTGVPGLPSTFQYGPAVFPVAPTSSKQHGVNVSVNASATPFQQPSGYGSHGYNTGVSVTSSNTGVPDISGSVYSKTQQSFEKQGFHSGTPAASFNLPSALGSGGPINPATAAAYPPAPFMHILTPHQQPHSQILHHHLQQDGQTGSGQRSQTSSIPQKPQTNKSAYNSYSWGAN
target (unweighted spectral count in RNP capture) [1]: 17 | background (unweighted spectral count in control) [1]: 1 | target (spectral count, OC43 Probe I RNP capture) (gRNA of HCoV-OC43): 6 | background (spectral count, no-probe control) (gRNA of HCoV-OC43): 1 | target (unweighted spectral count, OC43 Probe II capture) (HCoV-OC43 gRNA and sgRNA; 36 hpi): 5

B6: TIA1 (protein, UniProt P31483 1-386, looked up)
Cytotoxic granule associated …: MEDEMPKTLYVGNLSRDVTEALILQLFSQIGPCKNCKMIMDTAGNDPYCFVEFHEHRHAAAALAAMNGRKIMGKEVKVNWATTPSSQKKDTSSSTVVSTQRSQDHFHVFVGDLSPEITTEDIKAAFAPFGRISDARVVKDMATGKSKGYGFVSFFNKWDAENAIQQMGGQWLGGRQIRTNWATRKPPAPKSTYESNTKQLSYDEVVNQSSPSNCTVYCGGVTSGLTEQLMRQTFSPFGQIMEIRVFPDKGYSFVRFNSHESAAHAIVSVNGTTIEGHVVKCYWGKETLDMINPVQQQNQIGYPQPYGQWGQWYGNAQQIGQYMPNGWQVPAYGMYGQAWNQQGFNQTQSSAPWMGPNYGVQPPQGQNGSMLPNQPSGYRVAGYETQ
target (unweighted spectral count in RNP capture) [1]: 11 | background (unweighted spectral count in control) [1]: 1 | target (unweighted spectral count, OC43 Probe II capture) (HCoV-OC43 gRNA and sgRNA; 36 hpi): 6

B7: PURB (protein, UniProt Q96QR8 2-312, looked up)
Transcriptional regulator …: ADGDSGSERGGGGGPCGFQPASRGGGEQETQELASKRLDIQNKRFYLDVKQNAKGRFLKIAEVGAGGSKSRLTLSMAVAAEFRDSLGDFIEHYAQLGPSSPEQLAAGAEEGGGPRRALKSEFLVRENRKYYLDLKENQRGRFLRIRQTVNRGGGGFGAGPGPGGLQSGQTIALPAQGLIEFRDALAKLIDDYGGEDDELAGGPGGGAGGPGGGLYGELPEGTSITVDSKRFFFDVGCNKYGVFLRVSEVKPSYRNAITVPFKAWGKFGGAFCRYADEMKEIQERQRDKLYERRGGGSGGGEESEGEEVDED
target (unweighted spectral count of the protein in the RNP capture experiment) [1]: 5 | back-ground (unweighted spectral count of the protein in the control experiment) [1]: 1 | target (spectral count, OC43 Probe I RNP capture) (gRNA of HCoV-OC43): 5 | background (spectral count, no-probe control) (gRNA of HCoV-OC43): 1 | target (unweighted spectral count, OC43 Probe II) (HCoV-OC43 gRNA and sgRNA): 5 | background (unweighted spectral count, no-probe control) (HCoV-OC43 gRNA and sgRNA): 1
